Tests used:
[1] = target: T1, Recombinant AD-1 protein from HCMV gB (strain AD169, amino acids 541-658), fused with glutathione … (Human cytomegalovirus, strain AD169, UniProt P06473); experiment: SPR; Biacore T200; EV2038 (0.33 μg/mL) captured by anti-IgG (Fc) antibody on a CM5 chip; recombinant AD-1 injected as analyte; 1:1 binding model; details: both partners purified
T1 construct: antigenic domain 1 (AD-1) of human cytomegalovirus glycoprotein B, strain AD169, amino acids 541-658, UniProtKB P06473; The printed size of 40.7 kDa fits the fusion with GST still on it; no cleavage is told; Vector pGEX4T; also called recombinant antigenic domain 1; source: E. coli BL21 (DE3), solubilized with 0.5% sarkosyl, purified (SDS-PAGE, electroelution, dialysis against PBS)

[2] = target: T2, Human cytomegalovirus glycoprotein B (strain AD169) on infectious virions (Human cytomegalovirus, strain AD169, UniProt P06473); experiment: SPR; Biacore T200; infectious virions (strain AD169, 1.6 × 10^8 plaque-forming units/mL) trapped by captured MSL-109 (anti-gH/gL); EV2038 injected as analyte; 1:1 binding model; details: one partner purified
T2 construct: on infectious virions (not on cells): native glycoprotein B of human cytomegalovirus strain AD169 in the viral envelope; UniProtKB P06473 is printed for strain AD169 gB; also called gB; HCMV virions; source: HCMV strain AD169 virions, crude virus purification sample, purified via ultracentrifugation

[3] = target: glycoprotein B of 42 Japanese clinical isolates (39 tested in MRC-5, 24 in ARPE-19 cells) (human cytomegalovirus)
[4] = target: T2, Human cytomegalovirus glycoprotein B …; experiment: cell-based or functional assay
[5] = target: glycoprotein B of eight Japanese clinical isolates (2009-889, I88-55, I144-44, H12-42, H12-43, H1-10, H1-15, MDU-1) (human cytomegalovirus)

T2 sequence (P06473 32-906): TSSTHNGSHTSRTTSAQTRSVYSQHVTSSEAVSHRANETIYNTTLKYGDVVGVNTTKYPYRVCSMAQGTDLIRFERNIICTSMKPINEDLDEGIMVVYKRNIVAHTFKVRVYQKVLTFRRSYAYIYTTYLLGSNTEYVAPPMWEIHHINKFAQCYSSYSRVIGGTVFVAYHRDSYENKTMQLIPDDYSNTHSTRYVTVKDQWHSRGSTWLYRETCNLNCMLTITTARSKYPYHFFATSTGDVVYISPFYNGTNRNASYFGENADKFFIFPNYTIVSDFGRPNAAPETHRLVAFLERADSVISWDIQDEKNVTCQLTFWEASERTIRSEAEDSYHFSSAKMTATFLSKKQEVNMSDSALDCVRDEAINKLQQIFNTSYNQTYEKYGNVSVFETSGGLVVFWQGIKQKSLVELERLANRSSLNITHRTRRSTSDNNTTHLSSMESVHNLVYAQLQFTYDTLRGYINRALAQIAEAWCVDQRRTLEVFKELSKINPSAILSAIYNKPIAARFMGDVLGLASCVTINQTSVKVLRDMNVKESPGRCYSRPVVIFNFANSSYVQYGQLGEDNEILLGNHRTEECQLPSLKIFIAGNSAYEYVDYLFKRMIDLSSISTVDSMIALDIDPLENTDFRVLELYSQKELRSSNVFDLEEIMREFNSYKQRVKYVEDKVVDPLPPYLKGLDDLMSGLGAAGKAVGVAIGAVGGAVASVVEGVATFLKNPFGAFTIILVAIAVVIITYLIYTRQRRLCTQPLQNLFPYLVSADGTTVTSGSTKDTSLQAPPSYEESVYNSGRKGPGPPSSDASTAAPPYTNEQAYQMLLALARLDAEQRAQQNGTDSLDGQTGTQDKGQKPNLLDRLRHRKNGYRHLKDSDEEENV
T1 sequence (P06473 541-658): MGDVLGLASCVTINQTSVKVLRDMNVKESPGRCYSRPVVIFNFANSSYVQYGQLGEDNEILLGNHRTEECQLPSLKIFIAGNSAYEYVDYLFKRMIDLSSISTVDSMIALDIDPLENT

B1: EV2038 (IgG1 lambda), fully human neutralizing monoclonal antibody (antibody, V domains shown)
VH: QVQLQQWGAGLLKPSETLSLTCAVYGGSFSGYYWGWIRQPPGKGLEWIGEINHSGSANSNPSLKSRVTMSVDTSKNQFSLKVSSVTAADTAVYFCARVTRDLEWIPGDYYMDVWGKGTTVTVSS
VL: QSVLTQPPSASGTPGQRVSISCSGSLSNIGTNYVYWYQQLPGTAPKLLIFKNNQRPSGVPDRFSGSKSGTSASLAISGLRSEDEADYYCAAWDDSLNGYVFGTGTKVTVL
notes: heavy chain framework 1: only the Kabat CDRs are printed; heavy chain CDR1 (Kabat); heavy chain CDR2 (Kabat); heavy chain CDR3 (Kabat); constant region of human IgG1 heavy chain; light chain framework 1: only the Kabat CDRs are printed; light chain CDR1 (Kabat); light chain CDR2 (Kabat); light chain CDR3 (Kabat); constant region of a human lambda light chain; IgG1 lambda; the frameworks are not; …
Question: For B1, which Kd [1] is on record?
Answer: The Kd was 5.73 nM.

Question: What about the koff [1] of the same binder?
Answer: Its koff is 0.000279 s⁻¹.

Question: And the Kd [2]?
Answer: Its Kd is 0.224 nM.

Question: And the koff [2]?
Answer: Its koff is 0.00113 s⁻¹.

Question: And the IC50 of neutralisation of HCMV infection, plaque reduction assay, 24 clinical isolates in ARPE-19 cells [3]?
Answer: Its IC50 of neutralisation of HCMV infection, plaque reduction assay, 24 clinical isolates in ARPE-19 cells is 0.013 to 0.105 µg/mL.

Question: What about the IC50 of neutralisation of HCMV infection, plaque reduction assay, 39 clinical isolates in MRC-5 cells [3] of the same binder?
Answer: The IC50 of neutralisation of HCMV infection, plaque reduction assay, 39 clinical isolates in MRC-5 cells was 0.013 to 0.103 µg/mL.

Question: What about the IC90 of neutralisation of HCMV infection, plaque reduction assay, 24 clinical isolates in ARPE-19 cells [3] of the same binder?
Answer: Its IC90 of neutralisation of HCMV infection, plaque reduction assay, 24 clinical isolates in ARPE-19 cells is 0.208 to 1.03 µg/mL.

Question: What about the IC90 of neutralisation of HCMV infection, plaque reduction assay, 39 clinical isolates in MRC-5 cells [3] of the same binder?
Answer: The IC90 of neutralisation of HCMV infection, plaque reduction assay, 39 clinical isolates in MRC-5 cells was 0.215 to 0.901 µg/mL.

Question: And the “IC50 of neutralisation of HCMV infection (strain AD169) after two passages of virus grown with mAbs, preliminary study” value [4]?
Answer: The value was 0.08 to 0.18 µg/mL.

Question: What about the “IC50 of neutralisation of HCMV infection (strain AD169) in MRC-5 cells, without anti-CMV agents” value [4] of the same binder?
Answer: Its value is ~0.1 µg/mL.

Question: What about the IC50 of inhibition of viral cell-to-cell spread, focus expansion assay, eight clinical isolates in ARPE-19 cells [5] of the same binder?
Answer: Its IC50 of inhibition of viral cell-to-cell spread, focus expansion assay, eight clinical isolates in ARPE-19 cells is 1 to 3.1 µg/mL.

Question: What about the IC90 of inhibition of viral cell-to-cell spread, focus expansion assay, eight clinical isolates in ARPE-19 cells [5] of the same binder?
Answer: Its IC90 of inhibition of viral cell-to-cell spread, focus expansion assay, eight clinical isolates in ARPE-19 cells is 13 to 19 µg/mL.
